Non-standard residues stand in square brackets, D forms with d. No end group written: not given here. pGlu = O=C1CC[C@@H](C(=O)O)N1

The EC50 (read off the curve) is the midpoint of the concentration-response curve. Read a low EC50 (read off the curve) as a more potent agent. A word on the Kd: it is the equilibrium constant for the complex coming apart. High values mean a looser complex, low ones a tighter complex. The term koff denotes a measure of how fast the partners let go of each other. A low value points to a long-lived complex. The term kon denotes the rate constant with which the complex forms. Low values mean slower complex formation, high ones faster complex formation.

Test [1] deals with full length human CD32A on CHO cells (human) (UniProt P12318). Nature of the test: FACS on CHO cells stably expressing full length human CD32A, bound antibody detected with fluorochrome-conjugated anti-Fab'.
Chain of full length human CD32A on CHO cells (human) (P12318 34-317): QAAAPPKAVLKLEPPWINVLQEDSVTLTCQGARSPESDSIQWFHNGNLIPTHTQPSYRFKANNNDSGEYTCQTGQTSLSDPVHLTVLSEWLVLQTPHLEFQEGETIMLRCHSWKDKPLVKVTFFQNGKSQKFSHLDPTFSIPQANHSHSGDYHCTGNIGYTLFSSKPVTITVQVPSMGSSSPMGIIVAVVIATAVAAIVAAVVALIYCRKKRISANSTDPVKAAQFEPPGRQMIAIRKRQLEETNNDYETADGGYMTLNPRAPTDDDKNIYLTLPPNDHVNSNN
Test [2] addresses T1, human Aβ pE3-18 peptide, pEFRHDSGYEVHHQKLV (human).
T1 construct: The range 3-18 counts on the Aβ peptide; also called pE3-Aβ18; pE3-Aβ peptide
T1 peptide: [pGlu]FRHDSGYEVHHQKLV
Nature of the test: SPR, 1:1 Langmuir fit. As for the experimental part:
First a polyclonal α-human antibody was coupled to an SPR-Chip subsequent loaded with the humanized antibody until the Response Unit was more than 1000.
Kinetic measurement was performed at different concentrations (of 5 to 1000 nM) of AβpE3-18-peptide. The graphs of the measured series are shown as an overlay plot with the sensorgrams, corrected by the sensogram measuring the running buffer, aligned at the time of injection and the baseline adjusted to zero before injection. The results are evaluated according to a simple 1:1 interaction model (Langmuir fit), which promote the koff and kₒₙ rate constants.
(In general: In SPR one partner is held on a chip, and binding of the other changes the refractive index at the surface.)

As for “antibody comprising the human IgG1 Fc wild-type region of SEQ ID NO: 73”, in test [1], the concentration for a half-maximal effect (EC50 (read off the curve)) was 100 nM.
For the molecule “antibody comprising the K324A mutant variant of the human IgG1 Fc region (SEQ ID NO: 74)”, the EC50 (read off the curve) in test [1] was determined as 100 nM.

B1: humanized antibody clone #6 sequence variant VH: SEQ ID NO: 27, VL: SEQ ID NO: 14 (antibody, human IgG1, V domains shown)
VH: QVQLVQSGAEVKKSGASVKVSCKASGYSFTGHTMNWVRQAPGQGLEWMGLINPSNGVTRYNQKFQGRVTITRDTSTTTVHMELTSLTSEDTATYYCTREAKREWDETYWGQGTLVTVSS
VL: DVVMTQSPLSLPVTLGQPASISCKSSQSLLYSDGKTYLNWFQQRPGQSPRRLTYLVSKLDSGVPDRFSGSGSGTDFTLKISRVEAEDVGVYYCVQGTHFPFTFGGGTKVEIK
For the molecule B1, in test [2], binding was put at a Kd of 5.09 nM, the koff worked out at 0.00323 s⁻¹ and the kon was 635000 M⁻¹ s⁻¹.

B2: humanized antibody clone #6 sequence variant VH: SEQ ID NO: 27, VL: SEQ ID NO: 15 (antibody, human IgG1, V domains shown)
VH: QVQLVQSGAEVKKSGASVKVSCKASGYSFTGHTMNWVRQAPGQGLEWMGLINPSNGVTRYNQKFQGRVTITRDTSTTTVHMELTSLTSEDTATYYCTREAKREWDETYWGQGTLVTVSS
VL: DVVMTQSPLSLPVTLGQPASISCKSSQSLLHSDGKTYLNWFQQRPGQSPRRLTYLVSKLDSGVPDRFSGSGSGTDFTLKISRVEAEDVGVYYCVQGTHFPFTFGGGTKVEIK
In test [2], B2 had a Kd of 15.5 nM, a koff of 0.00415 s⁻¹ and a kon of 267000 M⁻¹ s⁻¹.

B3: humanized antibody clone #6 sequence variant VH: SEQ ID NO: 24, VL: SEQ ID NO: 14 (antibody, human IgG1, V domains shown)
VH: QVQLVQSGAEVKKSGASVKVSCKASGYSFTGHTMNWVRQAPGQGLEWMGLINPSNGVTRYNQKFQGRVTITRDTSTTTVHMELTSLTSEDTAVYYCTREAKREWDETYWGQGTLVTVSS
VL: DVVMTQSPLSLPVTLGQPASISCKSSQSLLYSDGKTYLNWFQQRPGQSPRRLTYLVSKLDSGVPDRFSGSGSGTDFTLKISRVEAEDVGVYYCVQGTHFPFTFGGGTKVEIK
In test [2], B3 had a Kd of 9.36 nM, an off-rate constant (koff) of 0.00576 s⁻¹ and a kon of 616000 M⁻¹ s⁻¹.

B4: humanized antibody clone #6 sequence variant VH: SEQ ID NO: 27, VL: SEQ ID NO: 13 (antibody, human IgG1, V domains shown)
VH: QVQLVQSGAEVKKSGASVKVSCKASGYSFTGHTMNWVRQAPGQGLEWMGLINPSNGVTRYNQKFQGRVTITRDTSTTTVHMELTSLTSEDTATYYCTREAKREWDETYWGQGTLVTVSS
VL: DVVMTQSPLSLPVTLGQPASISCKSSQSLLYSDGKTYLNWFQQRPGQSPRRLAYLVSKLDSGVPDRFSGSGSGTDFTLKISRVEAEDVGVYYCVQGTHFPFTFGGGTKVEIK
On to B4, for which, in test [2], binding was characterised by a dissociation constant (Kd) of 7.35 nM, the koff is 0.00413 s⁻¹ and the kon is 562000 M⁻¹ s⁻¹.

B5: humanized antibody clone #6 sequence variant VH: SEQ ID NO: 70, VL: SEQ ID NO: 14 (antibody, human IgG1, V domains shown)
VH: QVQLVQSGAEVKKSGASVKVSCKASGYSFTGHTMNWVRQAPGQGLEWMGLINPSNEVTRYNQKFQGRVTITRDTSTTTVHMELTSLTSEDTATYYCTREAKREWDETYWGQGTLVTVSS
VL: DVVMTQSPLSLPVTLGQPASISCKSSQSLLYSDGKTYLNWFQQRPGQSPRRLTYLVSKLDSGVPDRFSGSGSGTDFTLKISRVEAEDVGVYYCVQGTHFPFTFGGGTKVEIK
In test [2], B5 returned a Kd of 8.43 nM, a koff of 0.00357 s⁻¹ and a kon of 423000 M⁻¹ s⁻¹.
